pKd: −log10 of the molar value. Each block holds one substance with its values, some of them ahead of it.
Key:
emerin (Homo sapiens) = emerin (Homo sapiens) (UniProt P50402); settings: cited from earlier work
[1] = target: rabbit actin (Cytoskeleton, catalog #AKL95) (rabbit) (UniProt P68135)
[2] = target: rabbit actin (Cytoskeleton, catalog #AKL95) (rabbit) (UniProt P68135); remark: listed apart in the source
[3] = target: F-actin (Oryctolagus cuniculus) (UniProt P68135); settings: cited from earlier work

Sequence of tropomodulin (P28289 whole entry): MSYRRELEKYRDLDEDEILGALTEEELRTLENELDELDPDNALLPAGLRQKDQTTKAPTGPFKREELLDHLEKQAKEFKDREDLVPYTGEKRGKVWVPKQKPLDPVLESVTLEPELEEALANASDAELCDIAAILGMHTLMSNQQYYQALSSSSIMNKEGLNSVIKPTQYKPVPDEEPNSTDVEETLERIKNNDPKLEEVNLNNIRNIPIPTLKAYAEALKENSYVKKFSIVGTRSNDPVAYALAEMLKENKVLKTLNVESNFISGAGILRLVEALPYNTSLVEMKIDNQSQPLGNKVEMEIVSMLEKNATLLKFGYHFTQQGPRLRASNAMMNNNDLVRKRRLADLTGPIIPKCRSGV
Sequence of LAP2β (P42167 whole entry): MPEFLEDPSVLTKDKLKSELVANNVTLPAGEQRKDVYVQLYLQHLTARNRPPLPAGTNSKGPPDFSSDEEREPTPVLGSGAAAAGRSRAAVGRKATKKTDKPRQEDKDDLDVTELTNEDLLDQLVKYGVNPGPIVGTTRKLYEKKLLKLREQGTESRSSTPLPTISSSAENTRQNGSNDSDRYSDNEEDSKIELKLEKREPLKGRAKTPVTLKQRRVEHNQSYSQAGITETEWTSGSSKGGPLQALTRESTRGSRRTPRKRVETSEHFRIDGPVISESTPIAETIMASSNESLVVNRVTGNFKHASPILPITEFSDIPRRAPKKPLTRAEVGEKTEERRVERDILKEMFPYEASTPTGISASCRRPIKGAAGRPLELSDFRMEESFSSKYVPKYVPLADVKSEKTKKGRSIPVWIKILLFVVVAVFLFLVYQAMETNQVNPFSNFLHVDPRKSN
Sequence of emerin (Homo sapiens) (P50402 whole entry): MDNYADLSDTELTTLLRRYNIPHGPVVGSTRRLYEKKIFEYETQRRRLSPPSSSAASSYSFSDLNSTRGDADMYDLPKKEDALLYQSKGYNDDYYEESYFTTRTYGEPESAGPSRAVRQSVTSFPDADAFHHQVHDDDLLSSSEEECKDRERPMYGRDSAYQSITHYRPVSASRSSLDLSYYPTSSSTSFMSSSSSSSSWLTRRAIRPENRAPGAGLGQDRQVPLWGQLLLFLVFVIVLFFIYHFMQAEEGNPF

Substance: nesprin-1α (from UniProt Q8NF91)
pKd (emerin (Homo sapiens)): 8.40

length of green (pointed-end growth) segments on rhodamine–phalloidin filaments capped with capping protein, 1 μM tropomodulin [1]: 0.09 μm
length of growing (green) segments on filaments formed from gelsolin–actin seeds, 1 μM tropomodulin [1]: 0.1 μm
Substance: tropomodulin (from UniProt P28289 1-359) (natural protein)

actin polymerization assays (data not shown), activity against emerin (fold less active than emerin) [2]: 20
Substance: LAP2β (from UniProt P42167 1-454) (natural protein)

Substance: tropomodulin (from UniProt P28289)
pKd [3]: 6.96

Reference: PMC509406
